In PMC3797752:

Assays:
[1] = target: 22-mer tyrosine-sulfated biotinylated N-terminal CCR5 peptide; test: SPR; qualitative; ~5000 RU of biotinylated CCR5 peptide on an SA chip; 100 nM gp120 proteins injected at 10 µl/min, alone or pre-incubated with 2-fold molar excess of sCD4; 25°C; HBS-EP buffer; compared at time = 300 s
soluble CD4 (sCD4) = soluble CD4 (sCD4) (UniProt P01730); test: SPR; BIAcore 3000; ~200 RU of sCD4 or mAb immobilised directly on a CM5 chip via amine coupling; varying concentrations of gp120 injected at 80 µl/min; 25°C; HBS-EP buffer; 1:1 Langmuir fit
[2] = target: wild-type SF162 gp140 (cleavage-defective) (HIV-1 SF162); test: not stated; oligomeric state of the purified glycoproteins; method not given

Substance: gp120+sCD4 (sCD4-liganded, wild-type gp120) (from UniProt P01730) (complex)
- fold better binding than gp120 [1]: > 10 fold

Substance: wild-type SF162 gp120 (natural protein)
- Kd (soluble CD4 (sCD4)): 24.5 nM

Substance: wild-type SF162 gp140 (cleavage-defective) (natural protein)
- stoichiometry N [2]: 3
